In the DeepSol protein solubility set:

test: soluble on expression in E. coli; label from the status in PepcDB or PDB records

Sequence	soluble on expression in E. coli
MFQIKKAAVLGSGVMGSGIAAHLANIGIPTLLLDIVPPALTKEEEAKGLTLEHKSVRNRFSNTAVQKLLKQKPAPLTVKGNLALIEAGNLEDDLERLADVDWIIEVVVENLDIKKKLFEKVDAVRKPGSIVSSNTSGISVEKMAEGRSDDFQKHFLGTHFFNPPRYLKLLEVIPTKKTDPQVLSFMKLFGEDVLGKGVVIAKDTPNFIGNRIGTYGLLVTLQEMVKRGYSIGEVDSVTGPLIGRPKSATFRTLDVVGLDTFVYVANNVYENVQEKERDVFKVPAFMHDMLDKKWLGSKTGQGFFLKQGKEILELNPETMEYEARKKLKAASIELSKQEKGLSNKLKALVYAKDRAGELLWNIITPTLLYSAKLHKEIADDIVAIDQAMKWGFGWEQGPFEVWDAIGVEKSVQKMEESGAVIPAWVKEMLEKGFTTFYKHDNGDSYYYDNGEYKLIECNKKAISLKQLKAKNGVLKKNSGASLIDLGDGILCLEFHSKSNAIGMDITQMINYAVDEVEKNYKGLVIGNQSKNFCVGANLAMILMEAQDDNYFEIEWVVKNFQDAMMKIKYSSKPVVAAPYGMTLGGGTEVCLPAASIQASSETYMGLVEVGVGLIPGGGGNKELYIKHLNKMANGVEFDLQKVANKVFETVAMAKVLTSGQEAVSHNFLGDKDGISVNGDHLLYDAKQKALALYEAGYKAPIRKKIPVVGETGYATLALGAEAMHLSGYISEYDLHIAKKLAYVIAGGKVPYGTEVDEQYLLDVEREAFISLVSEMKSQARMQHMLVKGKPLRN	not soluble
MKIEEEFISASVNPRSHCLTACKTAPLVAYASSLQIAVQTIPKDDSEVGVIKSTSERRHQKPITVLKRLKSSEIVADEFVTGGVDSRVVLWKLRGEHVEYVADLTGCDGSVGSVCGCVEDGRKVVAAAWVSETSNGFHAWWTSSIGDLLNSTEIKLDHKAFALCLDAISIQNSVLLAVGTSKRFVELYGESADKKSFSRLISVAGHTDWIHSIAFNDNPDHLLVASAGQDTYVRLWAIEPETDEKSENIREDSSTTPPDELTSSANLFSINYTPYRCSSHAVMQGHDDWVHSTVWSNDGRVLLTASSDKTCIIWKEIDNLWRDDVRLGIVGGGQAAGFFAAVFSSSLDLKDSGEKNAENVVISSSYFGGLHCWKSTDEQKTFWTALPMTGGHVGEVRDVDWHRSDDGDSGFLMSVGQDQTTRVFAKNGRQQSYVEIARPQVHGHDMQCLSFVNPSIFVSGAEEKVFRAFRAPKSFVKSLEAISGVPTEKSFGDSDLAEFGACVPALGLSNKPMVEGETVDGEHWEEDAFRAAPVVLTSPPTEDTLQQNTLWPEQHKLYGHGYEVYAVTANPTGNVLATACKSSHVEHSVVMLWSTSNWSKKSEIIGHQLTVTQIAWNPSGTRLLTVSRDRTAKLYTEKNGEVDGFDYDCVWTSGKQHTRIIWACDWIDDEHFVTASRDQKVIVWAESAGQTAPKATVKLDEPVTAIAAVSKDVIVAGLQTGELIVLRFDSEGLHVIEKIGANRIPIDSAVLRLRFSKNGRKLAVATTDAKLRIFNVSQ	not soluble
MGSDKIHHHHHHMDKIYVLDTNVLLQDPLSIFSFETNEVVIPAVVLEEVDSKKRYMDEVGRNARYVSKLIDKFREIGKLHESIPLENGGTFRIELNHRSFVQLQDIFVEKTNDNRILAVAKNLSLEEQEKEDGKSVILVSKDVLVRVKADAIGLKAEDYLSDRVIEVENIYSGFLEGYISKEQLDYFYEKGELPLSEIANHPFYPNQFVVMKDALGGSSSALGIVDHLGKKVKKLIFHNEQVWGIRPRNVQQIMGLELLLREDIPLVTLTGKAGTGKTLLALASGLMQTEDLGLYKKLLVARPIVPVGKDIGYLPGEKEEKLRPWMQPIFDNLEYLFNTKKPGELDAILAGMGSIEVEALTYIRGRSIPDQFIIIDEAQNLTKHEVKTILTRVGEKSKIVLMGDPQQIDHPYLDEYNNGLTYVVEKFKEQRISGHVKFVKGERSNLAQLAADLL	not soluble
MGSDKIHHHHHHMRNIVFTGKGGVGKTSIAASTAVRAAALGYKTLVISTDPAHSLGDSFDIELGPSPVKVAENLWGQEVSVYGDLSLNWEVVREHFAHLMEVQGIEGIYVEEMGVLPGMEELFSLSYIKRYNESSEYDLLVVDCAPTGETLRLLSIPETFGWMLKLMRNMEKYVVKPVIRPLSKRISRLHDFVPDTDVYDQVDHLFSSVEGIIELLSDNSKTTVRLVMNPEKMVVKESMRALTYLNLYNITIDQIVINRVYMDDVDGQYFKGWKEIQKKYIAEIESSFGPIPITRVPLFRTEVLGLEMLKKVGETVYGDRNPLDIFYHEEHTEIVKPGEGHYVMKLRLPFVFDNRMEANIVQVGDLLTIRIGNHQKSVVLPTFLAGMKVTHAGYEEKWLAIEFRKKETAK	not soluble
EMIHHAKNQLIMCSPYFIPDESMLEAVTSACYRGVRVELLVSEQADQFVVDHAQSSYYQTLLEAGVHIYRYHAPAVLHSKFLIADPHGVAVSVMGSSNMDMRSFGLNYEVSLMTLQGQLTHLLYELAETYKENSTELTLEEWNQRGIVRRYVDNIMKLTSALQ	not soluble
VGAIMLDGKATRDEIFGDLKQRVAALDAAGRTPGLGTILVGDDPGSQAYVRGKHADCAKVGITSIRRDLPADISTATLNETIDELNANPDCTGYIVQLPLPKHLDENAALERVDPAKDADGLHPTNLGRLVLGTPAPLPCTPRGIVHLLRRYDISIAGAHVVVIGRGVTVGRPLGLLLTRRSENATVTLCHTGTRDLPALTRQADIVVAAVGVAHLLTADMVRPGAAVIDVGVSRTDDGLVGDVHPDVWELAGHVSPNPGGVGPLTRAFLLTNVVELAERR	soluble
MTDQPDLFGLAPDAPRPIIPANLPEDWQEALLPEFSAPYFHELTDFLRQERKEYTIYPPAPDVFNALRYTPLGEVKVLILGQDPYHGPNQAHGLSFSVRPGVRVPPSLRNIYKELTEDIPGFVAPKHGYLRSWAEQGVLLLNAVLTVRAGQANSHQGKGWEHFTDAVIKAVNAKEERVVFILWGSYARKKKKLITGKNHVVIESGHPSPLSEQYFFGTRPFSKTNEALEKAGRGPVEWQLPATVTEE	soluble
MAHHHHHHMGKGAVHPNGSNFCRAIKYNIVDKMRMLVETNLYDRPRWLEWAERAPPIEIHNISLKSRYNNNKYIDLVKFLLKKYPHLRFQDCYVEGNNNVKGYDFFRNDHIITQMATHQLYYMNRGYGKKDALQKVEKEFYNRRMELEKKQKINMCLSIDKKIKPLYTDGYAYLYEKMADNEKAHLGLILKKLRAMREKLEKEQGGDGAQPHT	not soluble
GDYERILYELEGMYQFGKRSHLDISAFSIASGVGYQLPLPMNPQFWLRYDFASGDKNHRDGRSNTFNQLFPFGHYYFGYIDQVGRQNIHDFNAQFTLHPQPWVTFLGQYHRFYLANKRDYLYNAAGAGTIRDITGQSGSHVGDEIDFTINFHLSRHQDVLLGYSKLFTGEFLKNTRPGVSPDLFYAQYNFRF	not soluble
MGSSSSFSSSSSKLLFRQLFENESSTFTYLLADVSHPDKPALLIDPVDKTVDRDLKLIDELGLKLIYAMNTHVHADHVTGTGLLKTKLPGVKSVISKASGSKADLFLEPGDKVSIGDIYLEVRATPGHTAGCVTYVTGEGADQPQPRMAFTGDAVLIRGCGRTDFQEGSSDQLYESVHSQIFTLPKDTLIYPAHDYKGFEVSTVGEEMQHNPRLTKDKETFKTIMSNLNLSYPKMIDVAVPANMVCGLQDVPSQAN	soluble
MGSDKIHHHHHHVKSELIWSKALETSRKAIDCAAVIPLETYKYKSIKKCFDFELRFLKRTFPKNLIDYGPKANPFIPWDRRLEVQAVNDNYTIILNKYPVQLGHLLLISNYWKPQNSWLSIDDFEAIAKVDNDTTGLWFFNSSKDAGASQPHRHFQLLRRDKYENICPRYEWFCSLLNNSEGFNSDIKQCISIKPRKSKLDIDAHDLFNSYKSMIIEMDLGNINNDDKPLKPYNLLITEKWISLIVRSKDRAHGFGINALGFAGYFLGTRRSDIDMLIKFGPESILKDVI	not soluble
MNTLISRQLGLLLHAHECVRRDIKIREAAEKNEPAPHAMCKIQDCVIMKEVLKHMTSCKEGPKCNSVHCASSRTILSHWKKCFNEECPVCKPIIEQRTAPPQDTTPAEPKKPEHDQIWHLEVPKTYRSELIEKIYKGIMSNVKPGTLSEAQMDTWKEYSRSAELQIFDTAQKLEAYYHMAREKVCRYQEGFPRRQKTEEKDESDGSEKEDEADDRLEGTSTDYQGS	not soluble
HQIGEDTYIVQGTMTLNDFNNYFDVELESDDVDTIAGYYLTGVGTIPTTEKLSYELVSQNKQFILTNDKVKNGRVTKVKVQITEVEIEEETE	not soluble
RVLQELHESEAQNRALLNAIPDMMLHVCREGTILDFRAGNGCAYAAFGGNLRGRTIADLLPPGAAAQFMAQVGHALATGTMMVCEYELEGPGGLNTHEARIVANGTGTVLAIVRDVT	not soluble
MNIREIAAKCSKCGYCTTCPTYRIEGWETVSPRGKIQLALKYVDGEIDVDQKIVKDIFKCSVCGLCQEVCPVELPLIDFWEELRRTLVQKGLAPLSVHRKLREILEHHHHHH	not soluble
MASSAVSLQSISMTTLNNLSCNQQFHRSSLLGSSKSFQNLGISSNGSDFSYPSSFTAKKNLTASRALSQNGNIENPRPSKVQELSVYEINELDRHSPKILKNAFSLMFGLGDLVPFTNKLYTGDLKKRVGITAGLCVVIEHVPEKKGERFEATYSFYFGDYGHLSVQGPYLTYEDSFLAITGGAGIFEGAYGQVKLQQLVYPTKLFYTFYLKGLANDLPLELTGTPVPPSKDIEPAPEAKALEPSGVISNYTN	soluble
MSLEDGYKVEVGKNAYLPCSYTLPTSGTLVPMCWGKGFCPWSQCTNELLRTDERNVTYQKSSRYQLKGDLNKGDVSLIIKNVTLDDHGTYCCRIQFPGLMNDKKLELKLDIKAALVPR	soluble
MGSDKIHHHHHHAQRGKRAMNRIDREVQETVFIPKGTWMAGGTVSYSEHDEGNLNFLVLKNVEGKGYNFGVSPYVGYFFRNNISAGMRFAYHRDYLDLKNFELNLGEDFNISLDNLYYLEHKYEVSGFLRTYMPIGRSKIFGLFNEARLTYGYGTGKNSTGTGATYDGSYQTAQNLQIGIAPGMTAFITDWSAVEVSVGVMGFDFKWIDQKTNQIEEGHQRVSSGNFKINLFSINIGMTFYL	not soluble
MSNWTTYPQKNLTQAEQLAQLIKEADALVVGIGAGMSAADGFTYIGSRFETAFPDFIAKYQFLDMLQASLFDFEDWQEYWAFQSRFVALNYLDQPVGQSYLDLKEILGTKDYHIITTNADNAFWVAGYDPHNIFHIQGEYGLWQCSQHCHQQTYKDDTVIRQMIAEQKNMKVPGQLIPHCPECEAPFEINKRNEEKGMVEDADFHAQKARYEAFLSEHKEGKVLYLEIGVGHTTPQFIKHPFWKRVSENPNALFVTLNHKHYRIPLSIRRQSLELTEHIAQLISATKTIYQKS	not soluble
MSTKLYYIYDPMCSWCWGYRPVWDLLQQHLPKSIDVEYVAGGLAPDSDSAMPIDQQQMIQNHWRTIEQKLGTKFNYDFWRENTARRSTYNACRAAIAAHKQSCQKAMIDAIQQAYYLRALNPSDVDVLVSVAKELSEQTSPTLDVAQFIVDINSSETNKELAKQVTLARELTQQGFPSLVLDVDGVIQQIPLDYSDYKTTLAYIIKKTS	not soluble
PCCELITNISIPDDKAQNTLSEIEDAISNILGKPVAYIMSNYDYQKNLRFSGSNEGYCFVRLTSIGGINRSNNSLLADKITKILSNHLSVKPRRVYIEFRDCSAQNFAFSGSLFGGSRSHHHHHH	soluble
